# Results reported in PMC9328939, “A Randomized Double‐Blind Placebo‐Controlled First‐In‐Human Phase 1 Trial of TransCon PTH in Healthy Adults” (Journal of Bone and Mineral Research, 2020).
# Several values for one entry are separate records, joined by “and”; a condition that tells them apart may be missing. Equal values may be shown once.
# How the values were obtained:
# healthy adults [1] = assay: Safety and tolerability: adverse events in SAD and MAD cohorts
# Protocol: Subjects attended a screening visit; those who met eligibility criteria were randomly assigned to a SAD or MAD cohort (n = 10/cohort; eight active and two placebo) and received a single or multiple dose(s) of TransCon PTH, respectively, via a syringe and 31G 8‐mm needle s.c. to the abdomen. […] Multiple TransCon PTH doses administered daily for 10 days ranged from 3.5 to 24 μg PTH(1‐34)/day. Throughout drug administration and for 4 days following the final dose, subjects remained housed for laboratory tests and safety monitoring.
# At screening, demographic information, medical history, and concomitant medications, vital signs with height and weight, hematology, blood chemistry (including sCa, sP, and sMg), intact endogenous PTH(1‐84), 1,25‐dihydroxyvitamin D, and urine samples were collected. In addition, a limited physical examination and electrocardiogram (ECG) were performed.
# Via regular vital sign checks, physical examinations, and safety laboratory tests, subjects were also monitored for adverse events (AEs) throughout the trial, including injection site reactions (erythema, ecchymosis, edema, pruritus, and pain).
# healthy adults [2] = assay: Pharmacodynamics: renal tubular maximum reabsorption of phosphate/GFR (TMP/GFR); type: in vivo, human; details: MAD cohorts, near steady-state (days 8 to 10); linear regression on dose, p = .0022
# Protocol: The ratio, TMP/GFR is based on sP, urine phosphate (uP), serum creatinine (sCr), and urine creatinine (uCr) and was calculated as follows[18]: (2) TMP/GFR=sP–uPxsCr/uCr
# All statistical analyses were performed using SAS 9.3 or higher (SAS Institute, Inc., Cary, NC, USA). Summary statistics were reported for continuous data, including mean, standard deviation, standard error, median, minimum, and maximum, whereas number and percentage of subjects within treatment groups were reported for categorical data. For sP and TMP/GFR, a linear regression model was performed for the change from baseline, with dose and baseline as independent variables at near steady‐state. Near steady‐state was defined as the average of predose values on day 8, 9, and 10. Dose was defined as a continuous variable where placebo was considered zero.
# [3] = MAD, 24 μg/day s.c. x 10 days, n = 8, number of subjects (% of cohort)
# [4] = MAD, 24 μg/day x 10 days, n = 8, at least possibly related, number of subjects (%)
# [5] = MAD, Total of all TransCon PTH doses (3.5 to 24 μg/day), n = 50, number of subjects (%)
# [6] = MAD, Total of all TransCon PTH doses, n = 50, at least possibly related, number of subjects (%)
# [7] = SAD cohorts administered TransCon PTH (n = 56)
# [8] = SAD, Total of all TransCon PTH doses (3.5 to 124 μg), n = 56, number of subjects (%)
# [9] = SAD, Total of all TransCon PTH doses, n = 56, at least possibly related, number of subjects (%)
# [10] = SAD, single s.c. 3.5 μg, n = 8, number of subjects (% of cohort)
# [11] = SAD, single s.c. 3.5 μg, n = 8, vasodilatory AEs at least possibly related to study drug, number of subjects (%)
# [12] = SAD, single s.c. 12 μg, n = 8, at least possibly related, number of subjects (%)
# [13] = SAD, single s.c. 12 μg, n = 8, number of subjects (% of cohort)
# [14] = SAD, single s.c. 32 μg, n = 8, at least possibly related, number of subjects (%)
# [15] = SAD, single s.c. 32 μg, n = 8, number of subjects (% of cohort)
# [16] = SAD, single s.c. 48 μg, n = 8, at least possibly related, number of subjects (%)
# [17] = SAD, single s.c. 48 μg, n = 8, number of subjects (% of cohort)
# [18] = SAD, single s.c. 72 μg, n = 8, at least possibly related, number of subjects (%)
# [19] = SAD, single s.c. 72 μg, n = 8, number of subjects (% of cohort)
# [20] = SAD, single s.c. 100 μg, n = 8, at least possibly related, number of subjects (%)
# [21] = SAD, single s.c. 100 μg, n = 8, number of subjects (% of cohort)
# [22] = SAD, single s.c. 124 μg, n = 8, at least possibly related, number of subjects (%)
# [23] = SAD, single s.c. 124 μg, n = 8, number of subjects (% of cohort)
substance,measurement,setting,value
"TransCon PTH: long-acting, essentially inactive prodrug: PTH(1-34) transiently bound to an inert 40 kDa mPEG carrier via a proprietary autocleaving linker",albumin-adjusted sCa in a subject with symptomatic hypercalcemia,"healthy adults [1]; MAD, 24 μg PTH(1-34)/day, one of three males, discontinued dosing after the sixth dose",11.68 mg/dL
same,albumin-adjusted sCa in an asymptomatic subject on day 11,"healthy adults [1]; MAD, 24 μg PTH(1-34)/day, single subject",11.76 mg/dL
same,Any AE (%),healthy adults [1]; [3],7 (87.5) %
same,Any SAE (%),healthy adults [1]; [3],0 (0) %
same,Any drug-related AE (%),healthy adults [1]; [3],6 (75.0) %
same,Any moderate or severe AE (%),healthy adults [1]; [3],5 (62.5) %
same,"Dizziness, light-headedness (including postural/orthostatic dizziness, syncope, presyncope) (%)",healthy adults [1]; [4],2 (25.0) %
same,Tachycardia/palpitations (%),healthy adults [1]; [4],3 (37.5) %
same,Any AE (%),healthy adults [1]; [5],66% and 33 (66.0) %
same,Any SAE (%),healthy adults [1]; [5],1 (2.0) %
same,Any drug-related AE (%),healthy adults [1]; [5],16 (32.0) %
same,Any moderate or severe AE (%),healthy adults [1]; [5],14 (28.0) %
same,"Dizziness, light-headedness (including postural/orthostatic dizziness, syncope, presyncope) (%)",healthy adults [1]; [6],5 (10.0) %
same,Tachycardia/palpitations (%),healthy adults [1]; [6],5 (10.0) %
same,maximum tolerable dose (MTD),"healthy adults [1]; MAD, healthy volunteers, daily s.c. x 10 days",20 μg PTH(1-34)/day
same,discontinuation of the trial due to an AE,healthy adults [1]; SAD and MAD cohorts,No subjects
same,drug-related SAEs or severe AEs,healthy adults [1]; SAD and MAD cohorts,no drug‐related SAEs or severe AEs
same,"physical examination, ECG, standard safety laboratory tests",healthy adults [1]; SAD and MAD cohorts,no safety concerns were detected
same,tolerability,"healthy adults [1]; SAD and MAD cohorts, s.c.",generally well tolerated
same,treatment-emergent AE: dizziness,healthy adults [1]; [7],10.7%
same,treatment-emergent AE: headache,healthy adults [1]; [7],7.1%
same,treatment-emergent AE: postural dizziness,healthy adults [1]; [7],5.4%
same,maximum tolerable dose (MTD),"healthy adults [1]; SAD cohorts, up to the top dose of 124 μg PTH(1-34)",No MTD was observed
same,Any AE (%),healthy adults [1]; [8],41.1% and 23 (41.1) %
same,Any SAE (%),healthy adults [1]; [8],1 (1.8) %
same,Any drug-related AE (%),healthy adults [1]; [8],14 (25.0) %
same,Any moderate or severe AE (%),healthy adults [1]; [8],6 (10.7) %
same,"Dizziness, light-headedness (including postural/orthostatic dizziness, syncope, presyncope) (%)",healthy adults [1]; [9],4 (7.1) %
same,Tachycardia/palpitations (%),healthy adults [1]; [9],0 (0.0) %
same,Any AE (%),healthy adults [1]; [10],1 (12.5) %
same,Any SAE (%),healthy adults [1]; [10],0 (0) %
same,Any drug-related AE (%),healthy adults [1]; [10],1 (12.5) %
same,Any moderate or severe AE (%),healthy adults [1]; [10],0 (0) %
same,"Dizziness, light-headedness (including postural/orthostatic dizziness, syncope, presyncope) (%)",healthy adults [1]; [11],0 (0.0) %
same,Tachycardia/palpitations (%),healthy adults [1]; [11],0 (0.0) %
same,"Dizziness, light-headedness (including postural/orthostatic dizziness, syncope, presyncope) (%)",healthy adults [1]; [12],0 (0.0) %
same,Tachycardia/palpitations (%),healthy adults [1]; [12],0 (0.0) %
same,Any AE (%),healthy adults [1]; [13],3 (37.5) %
same,Any SAE (%),healthy adults [1]; [13],1 (12.5) %
same,Any drug-related AE (%),healthy adults [1]; [13],1 (12.5) %
same,Any moderate or severe AE (%),healthy adults [1]; [13],1 (12.5) %
same,"Dizziness, light-headedness (including postural/orthostatic dizziness, syncope, presyncope) (%)",healthy adults [1]; [14],1 (12.5) %
same,Tachycardia/palpitations (%),healthy adults [1]; [14],0 (0.0) %
same,Any AE (%),healthy adults [1]; [15],3 (37.5) %
same,Any SAE (%),healthy adults [1]; [15],0 (0) %
same,Any drug-related AE (%),healthy adults [1]; [15],2 (25.0) %
same,Any moderate or severe AE (%),healthy adults [1]; [15],0 (0) %
same,"Dizziness, light-headedness (including postural/orthostatic dizziness, syncope, presyncope) (%)",healthy adults [1]; [16],0 (0.0) %
same,Tachycardia/palpitations (%),healthy adults [1]; [16],0 (0.0) %
same,Any AE (%),healthy adults [1]; [17],6 (75.0) %
same,Any SAE (%),healthy adults [1]; [17],0 (0) %
same,Any drug-related AE (%),healthy adults [1]; [17],5 (62.5) %
same,Any moderate or severe AE (%),healthy adults [1]; [17],2 (25.0) %
same,"Dizziness, light-headedness (including postural/orthostatic dizziness, syncope, presyncope) (%)",healthy adults [1]; [18],0 (0.0) %
same,Tachycardia/palpitations (%),healthy adults [1]; [18],0 (0.0) %
same,Any AE (%),healthy adults [1]; [19],2 (25.0) %
same,Any SAE (%),healthy adults [1]; [19],0 (0) %
same,Any drug-related AE (%),healthy adults [1]; [19],0 (0.0) %
same,Any moderate or severe AE (%),healthy adults [1]; [19],1 (12.5) %
same,"Dizziness, light-headedness (including postural/orthostatic dizziness, syncope, presyncope) (%)",healthy adults [1]; [20],2 (25.0) %
same,Tachycardia/palpitations (%),healthy adults [1]; [20],0 (0.0) %
same,Any AE (%),healthy adults [1]; [21],4 (50.0) %
same,Any SAE (%),healthy adults [1]; [21],0 (0) %
same,Any drug-related AE (%),healthy adults [1]; [21],3 (37.5) %
same,Any moderate or severe AE (%),healthy adults [1]; [21],1 (12.5) %
same,"Dizziness, light-headedness (including postural/orthostatic dizziness, syncope, presyncope) (%)",healthy adults [1]; [22],1 (12.5) %
same,Tachycardia/palpitations (%),healthy adults [1]; [22],0 (0.0) %
same,Any AE (%),healthy adults [1]; [23],4 (50.0) %
same,Any SAE (%),healthy adults [1]; [23],0 (0) %
same,Any drug-related AE (%),healthy adults [1]; [23],2 (25.0) %
same,Any moderate or severe AE (%),healthy adults [1]; [23],1 (12.5) %
same,change in TMP/GFR from baseline,healthy adults [2],significant dose‐dependent decrease
